In patent US5985273A, “Biological control of insects” (priority 1994, dated 1999):

Experiments:
Lucilia cuprina larvae = assay: Growth and survival of first instar sheep blowfly larvae on culture medium with inhibitor; type: in vivo; conditions: for Effect on larval growth, summary in words: Example 1, Table 1.2; for % Growth Inhibition / Average Larval Weight: Table 2.2; for Average Larval Weight: control 10.26
Teleogryllus commodus = assay: Mortality of black field cricket nymphs on treated cabbage leaf disks; type: in vivo; conditions: after 7 days
Procedure: (i) Stock solutions of inhibitors and control solutions were prepared as aqueous solutions or suspensions as outlined in Table 6.1.
(ii) Mortality was assessed by commencing the study with 1st instar nymphs.
(iii) Cabbage leaf disks (5×8 mm diameter disks/treatment) were smeared with 100 μl of inhibitor or control stock solutions and allowed to dry. Disks were placed singly in 40 mm petri dishes, together with a moist cotton wool pas as water supply and a piece of fluted plastic for shelter.
(iv) Ten nymphs were placed on each disc and the dishes incubated at 25° C.
(v) Mortality was assessed daily and any dead individuals removed.

O. surinamensis larvae = assay: Weight reduction of Oryzaephylus surinamensis larvae in treated flour; type: in vivo
Procedure: Insects were cultured in cleaned, ground and sieved wholemeal flour made from organic wheat. Inhibitors from bottles of pre-weighed material were dry-mixed with the flour and residual inhibitor rinsed from bottles with a small volume of water. Rinse water was added to the flour and the mixture re-ground. The impregnated flour was transferred to a 20 mL vial and mixed thoroughly by shaking and inverting.
Adults of T. castaneum were allowed to oviposit on flour, eggs were sifted from the flour and transferred one by one with a single hair to microwell tubes containing a small amount of flour. Each level of treatment was performed in triplicated using 32 wells/replicate. Assays were performed in triplicated. Cultures were incubated at 30° C. and 55% R H.
The bioassay for this insect was outlined for T. castaneum, except incubations were conducted at 32.5° C. and 70% R H. After 8 days the insects were sieved from the flour and weighed.

Tribolium castaneum = assay: Growth and survival of Tribolium castaneum in treated flour; type: in vivo; conditions: Day 6; all dose levels
Procedure: Insects were cultured in cleaned, ground and sieved wholemeal flour made from organic wheat. Inhibitors from bottles of pre-weighed material were dry-mixed with the flour and residual inhibitor rinsed from bottles with a small volume of water. Rinse water was added to the flour and the mixture re-ground. The impregnated flour was transferred to a 20 mL vial and mixed thoroughly by shaking and inverting. Adults of T. castaneum were allowed to oviposit on flour, eggs were sifted from the flour and transferred one by one with a single hair to microwell tubes containing a small amount of flour. Each level of treatment was performed in triplicated using 32 wells/replicate. Assays were performed in triplicated. Cultures were incubated at 30° C. and 55% R H. After 6 days each replicate of 32 wells was combined, the larvae counted and the numbers compared with numbers in the control (no inhibitor) treatment. Larvae were classified as "small" if appreciably smaller than reference larvae, or abnormal if unusual behaviour or formation were observed (eg. twisting or twisted larvae). Test inhibitors and dose rates were the same as those used in Example 4.

Ctenocephalides felis = assay: Development of cat flea eggs in dried blood diets; type: in vivo; conditions: Day 16
Procedure: Blood was collected from the jugular vein of a five year old merino sheep that had not been treated with an ectoparasitic agent for 18 months. The blood was collected into a 100 ml plastic bottle containing 0.8 ml of heparin and was maintained at 4° C. Inhibitors were pre-weighed into sterile 5 ml plastic vials and 4.5 ml of blood added. The samples were mixed, placed at -70° C. for 24 hours, then freeze-dried. The freeze-dried samples were sieved through a stainless steel 63 micron sieve, and placed into sterile 5 ml plastic vials (0.15 g/per tube). Four flea eggs were placed into each vial, and a sheet of tissue paper fastened by an elastic band was fitted to the top of each vial. The vials were incubated at 25° C. and 70-80% R H for 6 days. Vermiculite was then added to each vial to provide a supporting medium for the fleas to pupate and the tubes incubated at 25° C. and 70-80% R H, for a further 10 days. Ten control vials and three vials of each treatment were tested.
At the conclusion of the incubation period the vials were placed at -20° C. for 24 hours to kill the fleas. The number of eggs hatched and the life-cycle state was recorded.

[1] = test system: Heliothis punctigens larvae; assay: Growth and survival of cotton budworm larvae fed an artificial diet; type: in vivo; conditions: 10 days; for % Alive: control 70.0
Procedure: 1. The Haricot beans were cooked in a microwave for 40 minutes. 2. Agar was added to the hot water and stirred on a hot plate until almost boiling. 3. The haricot beans, agar mix, yeast and wheat germ was blended in an electric mixer for 3 minutes. 4. When the temperature has dropped to 60°C., the acids were added and mixed with the media. […] Inhibitor solutions or an equal volume of water were placed into sterilized glass tubes at designated concentrations. The artificial media was added to each tube (1.5 ml) using a sterile 10 ml syringe. First instar Heliothis punctigens larvae (1 larvae per tube) were added to the glass tubes and the tubes were capped. The tubes were incubated for 10 days at 25° C. The larvae were killed by placing the glass tubes at -70° C. for 24 hours, and then individually weighed. Percentage inhibition was calculated by comparison to control larvae.

[2] = test system: European corn borer (ECB) neonatal larvae; conditions: 20 mg/ml of diet; laboratory assay; cited from earlier work
[3] = test system: Southern corn rootworm (SCR) neonatal larvae; conditions: 20 mg/ml of diet; laboratory assay; cited from earlier work
L. cuprina eggs = assay: Egg hatch of L. cuprina on liver in vitro; type: in vivo, Lucilia cuprina; conditions: 0.17 mM; 24 hours at 35° C.; control 71
Procedure: L. cuprina eggs were placed on pieces of liver (0.9 g) which were then placed in individual wells of a 24-well tissue culture plate. Phosphate buffered saline (PBS, 0.1 ml) containing inhibitors at set concentrations were added to each well with 30 freshly laid and sterilised eggs of L. cuprina. The culture plate was then maintained in a sterile environment at 35° C. for 24 hours, after which time the percentage hatch was assessed.

[4] = test system: Bovicola ovis (Hartley strain); assay: Survival of sheep lice on inhibitor treated wool; type: in vivo; conditions: of 10 lice, 24 Hours at 35° C.
[5] = test system: Colorado potato beetle larvae; conditions: fed on potato leaves; cited from earlier work

c1cnc2c(c1)ccc1cccnc12 [1,10-phenanthroline]
Effect on larval growth, summary in words (Lucilia cuprina larvae): effective growth inhibitors
Larval survival (Lucilia cuprina larvae; first instar larvae, tested at 1, 2.5, 5 mM): All larvae died
Mortality (class) (Teleogryllus commodus; 5-20 mM): Medium (medium 21-40%)
inhibition at 5000 µM (O. surinamensis larvae; 192 h, 5 mM, 8 days, relative to untreated larvae, read-out: Percentage Growth Inhibition): 100%
inhibition at 10000 µM (O. surinamensis larvae; 192 h, 10 mM, 8 days, relative to untreated larvae, read-out: Percentage Growth Inhibition): 63%
inhibition at 20000 µM (O. surinamensis larvae; 192 h, 20 mM, 8 days, relative to untreated larvae, read-out: Percentage Growth Inhibition): 95%
Growth inhibition, summary in words (O. surinamensis larvae; text summary of Table 9.1): highly effective
Larval size classification (Tribolium castaneum): normal

CCCCC[C@H](CC(=O)NO)C(=O)N[C@H](C(=O)N1CCC[C@H]1CO)C(C)C [Actinonin]
Percentage of Fleas Progressing Through to Pupation (Ctenocephalides felis; 1.40 mg in 4.5 ml of blood): 0%
Percentage of Fleas Progressing Through to Pupation (Ctenocephalides felis; 2.80 mg in 4.5 ml of blood): 16.8%
Effect on larval growth, summary in words (Lucilia cuprina larvae): effective growth inhibitors
inhibition at 2500 µM (Lucilia cuprina larvae; Lucilia cuprina, first instar larvae, 2.5 mM): 83%
inhibition at 10000 µM (Lucilia cuprina larvae; Lucilia cuprina, first instar larvae, 10 mM): 95%
Mortality (class) (Teleogryllus commodus; 5 mM): None (none/low, 10-20% mortality)
% Alive ([1]; 2.5 mM): 33.3%
% Alive ([1]; 5.0 mM): 0.00%
inhibition at 2500 µM ([1]; Heliothis, 240 h, 2.5 mM, read-out: % Growth Inhibition): 97.5%
inhibition at 5000 µM ([1]; Heliothis, 240 h, 5.0 mM, read-out: % Growth Inhibition): 100%
Larval size classification (Tribolium castaneum): small

aprotinin
Neonatal larvae killed [2]: 100%
Neonatal larvae killed [3]: 60%

B1: Soybean Trypsin Inhibitor (protein, UniProt P01070 25-205, looked up)
Trypsin inhibitor A: DFVLDNEGNPLENGGTYYILSDITAFGGIRAAPTGNERCPLTVVQSRNELDKGIGTIISSPYRIRFIAEGHPLSLKFDSFAVIMLCVGIPTEWSVVEDLPEGPAVKIGENKDAMDGWFRLERVSDDEFNNYKLVFCPQQAEDDKCGDIGISIDHDDGTRRLVVSKNKPLVVQFQKLDKESL
Percentage of Fleas Progressing Through to Pupation (Ctenocephalides felis; 5.0 mg in 4.5 ml of blood): 0%
Percentage of Fleas Progressing Through to Pupation (Ctenocephalides felis; 10.0 mg in 4.5 ml of blood): 0%
% Growth Inhibition (Lucilia cuprina larvae; 0.0425 mM): -22.5%
Average Larval Weight (Lucilia cuprina larvae; 0.0425 mM): 12.57 10^-4 g
% Growth Inhibition (Lucilia cuprina larvae; 0.085 mM): 28.5%
Average Larval Weight (Lucilia cuprina larvae; 0.085 mM): 7.34 10^-4 g
% Growth Inhibition (Lucilia cuprina larvae; 0.170 mM): 45.1%
Average Larval Weight (Lucilia cuprina larvae; 0.170 mM): 5.63 10^-4 g
% Growth Inhibition (Lucilia cuprina larvae; 0.340 mM): 69.3%
Average Larval Weight (Lucilia cuprina larvae; 0.340 mM): 3.15 10^-4 g
% Growth Inhibition (Lucilia cuprina larvae; 0.680 mM): 70.6%
Average Larval Weight (Lucilia cuprina larvae; 0.680 mM): 3.02 10^-4 g
Growth Inhibition (Lucilia cuprina larvae; first instar larvae, 0.17 mM): 76%
Growth Inhibition (Lucilia cuprina larvae; first instar larvae, 0.40 mM): 64%
Mortality (class) (Teleogryllus commodus; 0.17-0.68 mM): None (none/low, 10-20% mortality)
% Hatch (L. cuprina eggs): 17%
Number of Living Lice ([4]; Adult, 0.17 mM): 4
Number of Living Lice ([4]; Adult, 0.34 mM): 0
Number of Living Lice ([4]; Adult, 0.68 mM): 0
Number of Living Lice ([4]; instar 1, 0.17 mM): 1
Number of Living Lice ([4]; instar 1, 0.34 mM): 1
Number of Living Lice ([4]; instar 1, 0.68 mM): 0
Number of Living Lice ([4]; instar 2, 0.17 mM): 2
Number of Living Lice ([4]; instar 2, 0.34 mM): 0
Number of Living Lice ([4]; instar 2, 0.68 mM): 0
Number of Living Lice ([4]; instar 3, 0.17 mM): 2
Number of Living Lice ([4]; instar 3, 0.34 mM): 4
Number of Living Lice ([4]; instar 3, 0.68 mM): 0
Growth retardation [5]: ineffective
Percentage Growth Inhibition (O. surinamensis larvae; 0.17 mM, 8 days, relative to untreated larvae): 12%
Percentage Growth Inhibition (O. surinamensis larvae; 0.34 mM, 8 days, relative to untreated larvae): 30%
Percentage Growth Inhibition (O. surinamensis larvae; 0.68 mM, 8 days, relative to untreated larvae): 46%
